Test results taken from paper doi:10.1101/2021.04.14.439868.

T1: LuxR (Vibrio campbellii BB120, UniProt P21308 1-205)
T1 sequence: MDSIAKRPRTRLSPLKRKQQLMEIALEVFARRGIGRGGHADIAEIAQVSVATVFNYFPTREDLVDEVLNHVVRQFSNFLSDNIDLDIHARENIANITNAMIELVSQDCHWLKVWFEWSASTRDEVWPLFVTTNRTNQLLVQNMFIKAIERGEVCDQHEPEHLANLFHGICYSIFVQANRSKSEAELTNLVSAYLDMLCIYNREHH

T2: SmcR (Vibrio vulnificus ATCC 27562, UniProt Q9L8G8 1-205)
T2 sequence: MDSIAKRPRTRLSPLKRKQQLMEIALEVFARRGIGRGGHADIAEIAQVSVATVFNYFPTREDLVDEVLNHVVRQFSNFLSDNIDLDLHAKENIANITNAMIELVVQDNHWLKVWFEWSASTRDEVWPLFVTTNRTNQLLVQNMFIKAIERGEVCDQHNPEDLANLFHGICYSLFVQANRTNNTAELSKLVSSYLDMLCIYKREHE

B1: luxC promoter site B (JDN54/JDN55) (dsDNA)
DNA 1: TTACTTATTTATAGTGTTACAAATAACATTA
DNA 2: TAATGTTATTTGTAACACTATAAATAAGTAA
B2: vvpE promoter (AB324/AB325) (dsDNA)
DNA 1: ATAAATCAAATTTGTAACTTTATTTCTGAGATGACTGTCCCATTTATCTTATTGATAAATCTGCGTAAAAAAGAAAAAGCACAATTTTATTACTAGTGTTT
DNA 2: AAACACTAGTAATAAAATTGTGCTTTTTCTTTTTTACGCAGATTTATCAATAAGATAAATGGGACAGTCATCTCAGAAATAAAGTTACAAATTTGATTTAT

Tests used:
LuxR = biological target: T1, LuxR; assay: EMSA
SmcR = biological target: T2, SmcR; assay: EMSA

| Binder | binding result (LuxR) | binding result (SmcR) |
| --- | --- | --- |
| B1 | binds |  |
| B2 |  | binds |
